In the supplement of paper PMC10567573:
± gives the standard deviation.

Assay: protein stability index of a GFP-peptide fusion (GPS, HEK-293T) (PSI 1-6); higher = more stable
Conditions: c terminus: a fixed tail appended
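Further: 24-mer peptide tiles fused after GFP, lentivirally expressed, FACS-sorted into six equal bins by GFP/DsRed ratio, decoded by Illumina sequencing, PSI is the read-weighted mean bin number.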

Sequence: PRRSLSISKNKKKASNSIISCFNN [FAN1]
- protein stability index (treatment: DMSO): 2.79 ± 0.13
- protein stability index (treatment: MLN4924 1 uM, 8 h): 3.75 ± 0.29

Sequence: TYPAHQNRVSAIIFSLATEWVIST [WDFY1]
- protein stability index (treatment: DMSO): 3.57 ± 0.89
- protein stability index (treatment: MLN4924 1 uM, 8 h): 2.92 ± 1.1

Sequence: QAELQELEERLQLQFEAEMARLQE [MTUS2]
- protein stability index (treatment: DMSO): 4.78 ± 0.38
- protein stability index (treatment: MLN4924 1 uM, 8 h): 4.72 ± 0.29

Sequence: HSLQQSEPDLRHLVLVVNTLRRIQ [SERTAD1]
- protein stability index (treatment: DMSO): 2.44 ± 0.33
- protein stability index (treatment: MLN4924 1 uM, 8 h): 2.61 ± 0.17

Sequence: PVYSVPQLLSAMGSLCSLWFGASV [SCNN1D]
- protein stability index (treatment: DMSO): 3.06 ± 0.056
- protein stability index (treatment: MLN4924 1 uM, 8 h): 3.37 ± 0.59

Sequence: LKYMEVTLRPTDSQSHCYRTCFSP [PCDHGC5]
- protein stability index (treatment: DMSO): 2.31 ± 0.2
- protein stability index (treatment: MLN4924 1 uM, 8 h): 2.25 ± 0.34

Sequence: PSPQLDTQQEIKLCQKSNDISIHH [WDR41]
- protein stability index (treatment: DMSO): 4.41 ± 0.51
- protein stability index (treatment: MLN4924 1 uM, 8 h): 4.49 ± 0.05

Sequence: IKEQEVCKLQEQLEATVKKLEESK [SASS6]
- protein stability index (treatment: DMSO): 5.1 ± 0.27
- protein stability index (treatment: MLN4924 1 uM, 8 h): 5.05 ± 0.25

Sequence: KNGKKWEILNFNQYYEACRKAAKS [ACSBG2]
- protein stability index (treatment: DMSO): 2.49 ± 0.21
- protein stability index (treatment: MLN4924 1 uM, 8 h): 2.62 ± 0.57

Sequence: ASVSSHRFFGPNAEISQPPALSQL [TCF25]
- protein stability index (treatment: DMSO): 3.35 ± 0.46
- protein stability index (treatment: MLN4924 1 uM, 8 h): 3.29 ± 0.35

Sequence: RESGAEPQEAVLQQLHQLPRGRLD [LRRC45]
- protein stability index (treatment: DMSO): 5.06 ± 0.3
- protein stability index (treatment: MLN4924 1 uM, 8 h): 5.16 ± 0.25

Sequence: GQREPGSLSRNNSFRRNVGRVLLA [FBXO34]
- protein stability index (treatment: DMSO): 3.11 ± 0.26
- protein stability index (treatment: MLN4924 1 uM, 8 h): 3.46 ± 0.21

Sequence: ALHPERAMDNHSDSEEELAAFCPQ [RETREG3]
- protein stability index (treatment: DMSO): 5.42 ± 0.12
- protein stability index (treatment: MLN4924 1 uM, 8 h): 5.37 ± 0.24

Sequence: QCDKRFRWSSDLNKHLTTHQGIKP [ZNF75A]
- protein stability index (treatment: DMSO): 3.02 ± 0.12
- protein stability index (treatment: MLN4924 1 uM, 8 h): 2.97 ± 0.24

Sequence: SKAPVLTYGQPKQAPPADFIPAHV [EFHC1]
- protein stability index (treatment: DMSO): 3.93 ± 0.18
- protein stability index (treatment: MLN4924 1 uM, 8 h): 4.1 ± 0.25

Sequence: HLTSVTSESEQEFLYKTAGGLIYW [CD207]
- protein stability index (treatment: DMSO): 2.33 ± 0.28
- protein stability index (treatment: MLN4924 1 uM, 8 h): 2.63 ± 0.33

Sequence: HRDIKPDNLLLDAKGHVKLSDFGL [STK38L]
- protein stability index (treatment: DMSO): 3.27 ± 0.23
- protein stability index (treatment: MLN4924 1 uM, 8 h): 3.4 ± 0.15

Sequence: RPPTPLFIPAKTGKDVATQILEGE [RSPH3]
- protein stability index (treatment: DMSO): 4.82 ± 0.15
- protein stability index (treatment: MLN4924 1 uM, 8 h): 5.01 ± 0.11

Sequence: RLCAPLFRNIKQEPFSARVLVLCV [SOAT1]
- protein stability index (treatment: DMSO): 2.73 ± 0.84
- protein stability index (treatment: MLN4924 1 uM, 8 h): 2.85 ± 1.4

Sequence: GRAVEHAMFLGDAAAHWYGGAEMR [MYORG]
- protein stability index (treatment: DMSO): 2.87 ± 0.34
- protein stability index (treatment: MLN4924 1 uM, 8 h): 3.14 ± 0.27

Sequence: NLGRMIDWVPVESLLRPLNSLAAL [ZER1]
- protein stability index (treatment: DMSO): 1.72 ± 0.18
- protein stability index (treatment: MLN4924 1 uM, 8 h): 2.28 ± 0.66

Sequence: VNNNYEHRHTSHLGHAVLPSNARG [SPRY1]
- protein stability index (treatment: DMSO): 3.96 ± 0.2
- protein stability index (treatment: MLN4924 1 uM, 8 h): 4.03 ± 0.21

Sequence: PRICQRNLMSLLMAVRPSLPESGL [FANCE]
- protein stability index (treatment: DMSO): 2.4 ± 0.6
- protein stability index (treatment: MLN4924 1 uM, 8 h): 2.21 ± 0.27

Sequence: CIDIVIRHVAPIPSHYDVQDRFRI [MOSPD3]
- protein stability index (treatment: DMSO): 2.77 ± 0.61
- protein stability index (treatment: MLN4924 1 uM, 8 h): 2.93 ± 0.55

Sequence: CLPAGPRVYFLKGGYETFYSEYPE [DUSP5]
- protein stability index (treatment: DMSO): 2.29 ± 0.22
- protein stability index (treatment: MLN4924 1 uM, 8 h): 2.28 ± 0.31

Sequence: PVKPVTFSTGIKMGQHISLAPIHK [MNAT1]
- protein stability index (treatment: DMSO): 2.96 ± 0.34
- protein stability index (treatment: MLN4924 1 uM, 8 h): 2.96 ± 0.32

Sequence: ILKRKWWKYILLGLADVEANYVIV [SLC35F2]
- protein stability index (treatment: DMSO): 2.55 ± 0.5
- protein stability index (treatment: MLN4924 1 uM, 8 h): 2.23 ± 0.76

Sequence: HKQDGKAGLFSQEQYERNKSSSSS [TMEM40]
- protein stability index (treatment: DMSO): 5.3 ± 0.35
- protein stability index (treatment: MLN4924 1 uM, 8 h): 5.31 ± 0.15

Sequence: CHKYDRNIQVTGSAALFYLTNSEY [ZER1]
- protein stability index (treatment: DMSO): 2.28 ± 0.34
- protein stability index (treatment: MLN4924 1 uM, 8 h): 1.97 ± 0.23

Sequence: ELFDKLSLRFNGRVLFIKDVIGDE [KCTD10]
- protein stability index (treatment: DMSO): 2.08 ± 0.22
- protein stability index (treatment: MLN4924 1 uM, 8 h): 2.82 ± 0.59

Sequence: FYMEEGVPYCERDYEKMFGTKCHG [PDLIM7]
- protein stability index (treatment: DMSO): 2.78 ± 0.4
- protein stability index (treatment: MLN4924 1 uM, 8 h): 3.19 ± 0.31

Sequence: HPGRGLAGRWLWGAQPCLLLPIVP [ADAMTS4]
- protein stability index (treatment: DMSO): 2.08 ± 0.7
- protein stability index (treatment: MLN4924 1 uM, 8 h): 1.92 ± 0.31
